{"source": "paper PMC6275225", "origin": "cited, not measured here", "molecular_target": "LFA-3 (Homo sapiens) (UniProt P19256)", "sequence (P19256 29-215)": "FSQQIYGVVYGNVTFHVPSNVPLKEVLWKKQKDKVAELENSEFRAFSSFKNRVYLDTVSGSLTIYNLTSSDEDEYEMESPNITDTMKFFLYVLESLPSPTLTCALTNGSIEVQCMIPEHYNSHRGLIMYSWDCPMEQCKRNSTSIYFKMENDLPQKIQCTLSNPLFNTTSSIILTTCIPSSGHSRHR", "data": [{"substance": "CD2 (from UniProt P06729)", "values": [{"measurement": "Kd", "result": 15, "unit": "µM"}]}]}
